The domain aggregation screens of Martell et al. (2025)

Assay: soluble fraction after stress (log2 fold change); higher = more stays soluble; pooled small domains, quantitative proteomics
Conditions: stress: 50 degC
In short: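 Pooled custom libraries of small protein domains were measured in a high-throughput format, with quantitative proteomics as the read-out. Each library was stressed at 50°C. Aggregation propensity is given as the base-two logarithm of the fold change in how much of each protein stays soluble after the stress. Higher values mean a larger share of the protein remains in solution.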
With “HMGSDQEAAMARQDRLSTLVDYVVERGSVHVDDIVADLGVSPATVRRDLDALAAQQLIIRTRGGATANHT” the “soluble fraction (log2)” value was 0.0263.
In the case of “HMAGTRRFELVEGSSSKFWEVTVADGSYTVTYGRIGTAGGSKTTESATAEADAEKLVREKLKKGYQEAGAA”, the “soluble fraction (log2)” value is reported as 0.245.
For “HMQSVSANSVQKQLADIIDGEDKTHPLSDRELTEKLVAQGVQISRRTVAKYREAMGIPGASGRKQ”, the “soluble fraction (log2)” value was 0.072.
In the case of “HMKITADQEIETAINYFKKSIAEKGWKGVNPDEFKQMNDYLSETFGYSATIKFQKALDEQGLMVDE”, the “soluble fraction (log2)” value is reported as 0.0602.
For “HMGQSKNERMLELVELLNKASRSYYQDAQEIMSNYEYDRLYDELQNLEKELGITLSNSPTVN”, the “soluble fraction (log2)” value was -0.0536.
For “HMHVSIAENIRRIRTQHDMTQEEFGKVAAVSAMAVSQWENGRAVPRMGAVQRIADYFNISKGEVID”, the “soluble fraction (log2)” value was -0.543.
In the case of “HMSDRLRPGDMVVVVGKKKRYPVFSAFDIDFVEAGDVGKVLTVKREEVVVGFPKKGEGTFTPSELNIAH”, the “soluble fraction (log2)” value is reported as -0.597.
With “HMHQAVTVTKPARLFTGPDGKGVVRSLDVGMMLYPTGEKQGMMWEVEDELGNKGWVSSTLLELS” the “soluble fraction (log2)” value was 0.207.
With “HMIHQPNNETTRNLIAGVVKKSLSVWETRVQVDGVDVTTAKDNLAEVHINIRYRLRHNQTPASLGLRLNLG” the “soluble fraction (log2)” value was 0.00106.
In the case of “HMKFLYQKAREEIISLIQDGEIKPSEKIMPERELSELLGYNRMTIKKAINSLVAEGVLMKKRGAGTFLLG”, the “soluble fraction (log2)” value is reported as -0.387.
With “HMGTAVKAPMPGTILKVNVTAGQSVKAGDIMFILEAMKMENEIVAPSDGTVSQVVAAKGSSVATDDVLAYL” the “soluble fraction (log2)” value was -0.0338.
With “HMVSIGSQVAKRRRELRLTQQNLAEKMGVSFQAISSWEREEFLPDINKLQKLAAILNTKISYLLEE” the “soluble fraction (log2)” value was -1.3.
With “HMTKPTLMEVEIKGAIQNPGVYTLKRNSSISKLIKMSGPLLENADTSSISFTHILQDKDVVVIPEIK” the “soluble fraction (log2)” value was -0.262.
In the case of “HMGTTKGVVDVTVPNGRASQHVKLVVIDDDGGRVVYDGTNAPGDRIVKSVSGSGNVRVQIYLNNALVQEQS”, the “soluble fraction (log2)” value is reported as -0.2.
With “HMKRMSKKQLSAVIEKYFSSQPGVTLTLKDIFRNLHLDTHPLKMIALDILEEMSWDDVIMKVSDTSYALNT” the “soluble fraction (log2)” value was 0.281.
With “HMSKIRTFRVKTVAVDQAYQVLKDYSPIKISTESNAVIIDLDESKTPAEIAGYLEKNGIKVDNIEVIAESE” the “soluble fraction (log2)” value was 0.179.
For “HMEPMLEIFDAKIDLADVLAVESGLVRLRGGAEVTSPRVDVDAGARLELDSGARLNVERLSY”, the “soluble fraction (log2)” value was 0.0258.
In the case of “HMETYSGVERAAILVMYLERTLAKALLDHMNDEEVRRVGMAMASIDRVEGPDIERIVGDFVRELYEVS”, the “soluble fraction (log2)” value is reported as -0.793.
With “HMKNDKLLIFMELKGISRTQLSKSTGIPASTLGRIINGDVQKIKAVYMEAIANALDTSIHTIFDV” the “soluble fraction (log2)” value was -1.27.
In the case of “HMWAQSVSLHGLLGRQALLIVDGKPPRAVAPGQTHLGVTVLSTDEDRAVVALAGGQRLTLRVGESPVSVG”, the “soluble fraction (log2)” value is reported as -0.0812.
For “HMAPAGGITRQDLFAWGLMGGEGSREKRQQLKKSLGLPSHLGTSGFLDALNLIATRDQVEALLHK”, the “soluble fraction (log2)” value was -0.15.
For “HMPDPVHAAYLRLAVLLTEQAIGPQVTEQQIRDRFALTRRQTSDLMGRLIREGIAEKRAGYGWNINTELTA”, the “soluble fraction (log2)” value was -0.845.
With “HMQDGTILPGQKTAIRSLATSGGYDSQDLDTYLATTYGKSIDGLTRTEGADVIKAFQAGTVAK” the “soluble fraction (log2)” value was 0.233.
In the case of “HMGGNKILTWKTDAATTRNQVPINERKEGLEISYKNEERNWVAEKYVGTSFSDDKWGVDYNWNQD”, the “soluble fraction (log2)” value is reported as 0.421.
For “HMEEHSLRKQEMLRIIEALEQLTPKEKTVVVLYYFKGVLFKDIAMLLDVTEGRISQLHTAAMGRLKKLMD”, the “soluble fraction (log2)” value was -0.0471.
For “HMVTTLLIINVAGKVKNPGVYQLPPGSRVVDALEAAGQQLKGVDISDINLARVLVDGEQILIGSN”, the “soluble fraction (log2)” value was -1.86.
For “HMPQISQDDLMEAGLIVGKEAKQRRIKLGEILGIGYVNAKQLPKRLQLFQVAKSDFEQAVQQIDG”, the “soluble fraction (log2)” value was -0.0431.
In the case of “HMPIKYTHKGYTINVSRSKMNGTTFVKVVDPKGQVIQQSQDNRIQDVNQLVTTMKQYIDTLKPS”, the “soluble fraction (log2)” value is reported as 0.189.
In the case of “HMRTITYSITPAHAGMSVERYLKQQHGYSTRTLVKLKHYPQGLQLNGQHARTVDLLQAGDTLAVTFLD”, the “soluble fraction (log2)” value is reported as -0.552.
For “HMKKYEIIFNDLKQSIVNGKYSNEERLPPEETLAKKYQTSRVPVQQALNALVGIGMVKRIAGSGTYVTY”, the “soluble fraction (log2)” value was -0.628.
